Source: article PMC6070752

Legend:
[1] = target: T1, His6-MgrA (Staphylococcus aureus NCTC8325) (UniProt Q2G0B1); assay: EMSA; settings: EMSA: 50 mM Tris-HCl pH 8.0, 200 mM NaCl, 25°C, 1 h, DNase I footprinting: 20 mM Tris-HCl pH 8.0, 100 mM NaCl, 5 mM MgCl2, 1 mM CaCl2, 2 mM DTT
T1 sequence: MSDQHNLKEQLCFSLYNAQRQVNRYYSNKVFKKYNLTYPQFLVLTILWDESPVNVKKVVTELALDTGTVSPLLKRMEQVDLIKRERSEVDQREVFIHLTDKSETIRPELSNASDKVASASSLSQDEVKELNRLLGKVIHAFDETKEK

[2] = target: T1, His6-MgrA (Staphylococcus aureus NCTC8325); assay: competition; settings: EMSA: 50 mM Tris-HCl pH 8.0, 200 mM NaCl, 25°C, 1 h, DNase I footprinting: 20 mM Tris-HCl pH 8.0, 100 mM NaCl, 5 mM MgCl2, 1 mM CaCl2, 2 mM DTT

Sequence | binding [1] | binding [2]
ACTTAAATACGAATTCAGGCAACTTAATTGTGTTAAATACAGTTTTGAATGCCTAACTGTATTTCTTTTCTCTTTAAAATACAGTTAAGTACATTATAAGATGTTGTGCGGATAAACAAACTAATTGCATCAAATTTATTTTAAAATAACAACAACAAAACGTTAAGCGAATAACATTTCGGTGATTTAAAAGCTACGCACGTTTTTGTTATCTTCAAATTTAAATTTTAAGGAGTGTTTTCAATGGAAGGTT (double strand) [psmβ promoter fragment (Ppsmβ-biotin), 243 bp] | binds | 
ACTTAAATACGAATTCAGGCAACTTAATTGTGTTAAATACAGTTTTGAATGCCTAACTGTATTTCTTTTCTCTTTAAAATACAGTTAAGTACATTATAAGATGTTGTGCGGATAAACAAACTAATTGCATCAAATTTATTTTAAAATAACAACAACAAAACGTTAAGCGAATAACATTTCGGTGATTTAAAAGCTACGCACGTTTTTGTTATCTTCAAATTTAAATTTTAAGGAGTGTTTTCAATGGAAGGTT (double strand) [unlabeled psmβ promoter fragment (Ppsmβ), 243 bp] |  | binds
